B1: VPS52 (protein, UniProt Q8N1B4 2-723, looked up)
Vacuolar protein …: AAAATMAAAARELVLRAGTSDMEEEEGPLAGGPGLQEPLQLGELDITSDEFILDEVDVHIQANLEDELVKEALKTGVDLRHYSKQVELELQQIEQKSIRDYIQESENIASLHNQITACDAVLERMEQMLGAFQSDLSSISSEIRTLQEQSGAMNIRLRNRQAVRGKLGELVDGLVVPSALVTAILEAPVTEPRFLEQLQELDAKAAAVREQEARGTAACADVRGVLDRLRVKAVTKIREFILQKIYSFRKPMTNYQIPQTALLKYRFFYQFLLGNERATAKEIRDEYVETLSKIYLSYYRSYLGRLMKVQYEEVAEKDDLMGVEDTAKKGFFSKPSLRSRNTIFTLGTRGSVISPTELEAPILVPHTAQRGEQRYPFEALFRSQHYALLDNSCREYLFICEFFVVSGPAAHDLFHAVMGRTLSMTLKHLDSYLADCYDAIAVFLCIHIVLRFRNIAAKRDVPALDRYWEQVLALLWPRFELILEMNVQSVRSTDPQRLGGLDTRPHYITRRYAEFSSALVSINQTIPNERTMQLLGQLQVEVENFVLRVAAEFSSRKEQLVFLINNYDMMLGVLMERAADDSKEVESFQQLLNARTQEFIEELLSPPFGGLVAFVKEAEALIERGQAERLRGEEARVTQLIRGFGSSWKSSVESLSQDVMRSFTNFRNGTSIIQGALTQLIQLYHRFHRVLSQPQLRALPARAELINIHHLMVELKKHKPNF
B2: NAP1L2 (protein, UniProt Q9ULW6 1-460, looked up)
Nucleosome assembly protein …: MAESENRKELSESSQEEAGNQIMVEGLGEHLERGEDAAAGLGDDGKCGEEAAAGLGEEGENGEDTAAGSGEDGKKGGDTDEDSEADRPKGLIGYVLDTDFVESLPVKVKYRVLALKKLQTRAANLESKFLREFHDIERKFAEMYQPLLEKRRQIINAIYEPTEEECEYKSDSEDCDDEEMCHEEMYGNEEGMVHEYVDEDDGYEDYYYDYAVEEEEEEEEEDDIEATGEENKEEEDPKGIPDFWLTVLKNVDTLTPLIKKYDEPILKLLTDIKVKLSDPGEPLSFTLEFHFKPNEYFKNELLTKTYVLKSKLAYYDPHPYRGTAIEYSTGCEIDWNEGKNVTLKTIKKKQKHRIWGTIRTVTEDFPKDSFFNFFSPHGITSNGRDGNDDFLLGHNLRTYIIPRSVLFFSGDALESQQEGVVREVNDAIYDKIIYDNWMAAIEEVKACCKNLEALVEDIDR
B3: PSMB9 (protein, UniProt P28065 21-219, looked up)
Proteasome subunit beta type-9: TTIMAVEFDGGVVMGSDSRVSAGEAVVNRVFDKLSPLHERIYCALSGSAADAQAVADMAAYQLELHGIELEEPPLVLAAANVVRNISYKYREDLSAHLMVAGWDQREGGQVYGTLGGMLTRQPFAIGGSGSTFIYGYVDAAYKPGMSPEECRRFTTDAIALAMSRDGSSGGVIYLVTITAAGVDHRVILGNELPKFYDE
B4: RASAL2 (protein, UniProt Q9UJF2 1-1139, looked up)
Ras GTPase-activating protein …: MQTPEVPAERSPRRRSISGTSTSEKPNSMDTANTSPFKVPGFFSKRLKGSIKRTKSQSKLDRNTSFRLPSLRSTDDRSRGLPKLKESRSHESLLSPCSTVECLDLGRGEPVSVKPLHSSILGQDFCFEVTYLSGSKCFSCNSASERDKWMENLRRTVQPNKDNCRRAENVLRLWIIEAKDLAPKKKYFCELCLDDTLFARTTSKTKADNIFWGEHFEFFSLPPLHSITVHIYKDVEKKKKKDKNNYVGLVNIPTASVTGRQFVEKWYPVSTPTPNKGKTGGPSIRIKSRFQTITILPMEQYKEFAEFVTSNYTMLCSVLEPVISVRNKEELACALVHILQSTGRAKDFLTDLVMSEVDRCGEHDVLIFRENTIATKSIEEYLKLVGQQYLHDALGEFIKALYESDENCEVDPSKCSSSELIDHQSNLKMCCELAFCKIINSYCVFPRELKEVFASWKQQCLNRGKQDISERLISASLFLRFLCPAIMSPSLFNLMQEYPDDRTSRTLTLIAKVIQNLANFAKFGNKEEYMAFMNDFLEHEWGGMKRFLLEISNPDTISNTPGFDGYIDLGRELSVLHSLLWEVVSQLDKGENSFLQATVAKLGPLPRVLADITKSLTNPTPIQQQLRRFTEHNSSPNVSGSLSSGLQKIFEDPTDSDLHKLKSPSQDNTDSYFRGKTLLLVQQASSQSMTYSEKDERESSLPNGRSVSLMDLQDTHAAQVEHASVMLDVPIRLTGSQLSITQVASIKQLRETQSTPQSAPQVRRPLHPALNQPGGLQPLSFQNPVYHLNNPIPAMPKASIDSSLENLSTASSRSQSNSEDFKLSGPSNSSMEDFTKRSTQSEDFSRRHTVPDRHIPLALPRQNSTGQAQIRKVDQGGLGARAKAPPSLPHSASLRSTGSMSVVSAALVAEPVQNGSRSRQQSSSSRESPVPKVRAIQRQQTQQVQSPVDSATMSPVERTAAWVLNNGQYEEDVEETEQNLDEAKHAEKYEQEITKLKERLRVSSRRLEEYERRLLVQEQQMQKLLLEYKARLEDSEERLRRQQEEKDSQMKSIISRLMAVEEELKKDHAEMQAVIDAKQKIIDAQEKRIVSLDSANTRLMSALTQVKERYSMQVRNGISPTNPTKLSITENGEFKNSSC
B5: CCDC21 (protein, UniProt Q6P2H3 1-762, looked up)
Centrosomal protein of 85 kDa: MAMQEKYPTEGISHVTSPSSDVIQKGSSLGTEWQTPVISEPFRSRFSRCSSVADSGDTAIGTSCSDIAEDFCSSSGSPPFQPIKSHVTIPTAHVMPSTLGTSPAKPNSTPVGPSSSKLPLSGLAESVGMTRNGDLGAMKHSPGLSRDLMYFSGATGENGIEQSWFPAVGHERQEEARKFDIPSMESTLNQSAMMETLYSDPHHRVRFHNPRTSTSKELYRVLPEAKKAPGSGAVFERNGPHSNSSGVLPLGLQPAPGLSKPLPSQVWQPSPDTWHPREQSCELSTCRQQLELIRLQMEQMQLQNGAICHHPAAFGPSLPILEPAQWISILNSNEHLLKEKELLIDKQRKHISQLEQKVRESELQVHSALLGRPAPFGDVCLLRLQELQRENTFLRAQFAQKTEALSREKIDLEKKLSASEVEVQLIRESLKVALQKHSEEVKKQEERVKGRDKHINNLKKKCQKESEQNREKQQRIETLERYLADLPTLEDHQKQSQQLKDSELKSTELQEKVTELESLLEETQAICREKEIQLESLRQREAEFSSAGHSLQDKQSVEETSGEGPEVEMESWQKRYDSLQKIVEKQQQKMDQLRSQVQSLEQEVAQEEGTSQALREEAQRRDSALQQLRTAVKELSVQNQDLIEKNLTLQEHLRQAQPGSPPSPDTAQLALELHQELASCLQDLQAVCSIVTQRAQGHDPNLSLLLGIHSAQHPETQLDLQKPDVIKRKLEEVQQLRRDIEDLRTTMSDRYAQDMGENCVTQ
B6: GBP2 (protein, UniProt P32456 1-588, looked up)
Guanylate-binding protein 2: MAPEINLPGPMSLIDNTKGQLVVNPEALKILSAITQPVVVVAIVGLYRTGKSYLMNKLAGKKNGFSLGSTVKSHTKGIWMWCVPHPKKPEHTLVLLDTEGLGDIEKGDNENDSWIFALAILLSSTFVYNSMGTINQQAMDQLHYVTELTDRIKANSSPGNNSVDDSADFVSFFPAFVWTLRDFTLELEVDGEPITADDYLELSLKLRKGTDKKSKSFNDPRLCIRKFFPKRKCFVFDWPAPKKYLAHLEQLKEEELNPDFIEQVAEFCSYILSHSNVKTLSGGIPVNGPRLESLVLTYVNAISSGDLPCMENAVLALAQIENSAAVEKAIAHYEQQMGQKVQLPTETLQELLDLHRDSEREAIEVFMKNSFKDVDQMFQRKLGAQLEARRDDFCKQNSKASSDCCMALLQDIFGPLEEDVKQGTFSKPGGYRLFTQKLQELKNKYYQVPRKGIQAKEVLKKYLESKEDVADALLQTDQSLSEKEKAIEVERIKAESAEAAKKMLEEIQKKNEEMMEQKEKSYQEHVKQLTEKMERDRAQLMAEQEKTLALKLQEQERLLKEGFENESKRLQKDIWDIQMRSKSLEPIC

What follows are molecules tested against T1, GST-tagged viral proteins (Hepatitis C virus genotype 1b, UniProt Q9WMX2) (assay: Validation by co-affinity purification (CoAP)). Details: interaction with HCV protein NS5A.
T1 construct: expressed in transfected cells; host or cells: HEK-293T
Type: binding, HCV genotype 1b, isolate con1
Design: key: +: IMAP validation; −: not validated; NA: non assayable due to default of protein expression or to cellular protein directly interacting with GST
From the text: C. Validation of Y2H interactions by co-affinity purification assay. Nine co-AP positive assays are shown, representing: NS5A-SORBS2 (1), NS3-CALCOCO2 (2), NS5A-BIN1 (3), NS5A-MOBK1B (4), NS5A-EFEMP1 (5), NS3-PSMB9 and NS5A-PSMB9 (6), NS5A-PPPIRI3L (7), NS3-RASAL2 (8). After pull-down with GST tagged viral baits (+) or with negative control GST alone (−), cellular preys are identified with anti-Flag antibody. Anti-GST antibody identifies either GST alone or GST-tagged viral baits. Expression of cellular preys in cell lysate is controlled by anti-Flag (bottom panel). […]
A random pool of 59 IMAP Y2H interactions was chosen for CoAP assays. Cellular ORFs (interacting domains found in Y2H screens) were cloned by recombinational cloning from a pool of human cDNA library or the MGC cDNA plasmids using KOD polymerase (Toyobo) into pDONR207 (Invitrogen). After validation by sequencing, these ORFs were transferred to pCi-neo-3xFLAG gateway-converted, and HCV ORFs were transferred into pDEST27 (GST fusion in N-term). HEK-293T cells were then co-transfected (JetPei, Polyplus) by each pair of plasmid encoding interacting proteins. Controls are GST alone against 3xFLAG-tagged preys. Two days after transfection, cells were harvested and lysed (0.5% NP-40, 20 mM Tris-HCl (pH 8.0), 180 mM NaCl, 1 mM EDTA, and complete protease inhibitor cocktail). Cell lysates were cleared by centrifugation for 20 min at 13,000 rpm at 4° C. and soluble protein complexes were purified using Glutathione Sepharose 4B beads (GE Healthcare). Beads were then washed extensively four times with lysis buffer and proteins were separated on SDS-PAGE and transferred to nitrocellulose membrane. GST-tagged viral proteins and 3xFLAG-tagged cellular proteins were detected using standard immunoblotting techniques using anti-GST (Covance) and anti-FLAG M2 (Sigma) monoclonal antibodies (21).

**Q.** Which CoAP does the source give for B1 here?
**A.** +

**Q.** For B2, which CoAP is on record?
**A.** +

**Q.** For B3, which CoAP is on record?
**A.** +

Same assay, conditions: validation of interaction with HCV protein NS3

**Q.** B4 was tested. Which CoAP did it give?
**A.** +

**Q.** Which CoAP does the source give for B5 here?
**A.** +

**Q.** With B3 as the molecule, how does the CoAP read?
**A.** +

**Q.** How did the CoAP turn out when B6 was run?
**A.** +

These molecules were tested against T2, HCV ORFs (Gal4-DB fusions) (Hepatitis C virus genotype 1b, UniProt Q9WMX2) (assay: not given). Details: HCV protein NS3 as bait; human protein as prey.
T2 construct: expressed in transfected cells; host or cells: Saccharomyces cerevisiae MAV203 (IMAP1) / AH109 (IMAP2)
Type: binding, HCV genotype 1b, isolate con1

**Q.** How did the “IMAP Y2H IMAP2 (number of IST)” value turn out when B4 was run?
**A.** 3

**Q.** Which “IMAP Y2H IMAP2 (number of IST)” value does the source give for B5 here?
**A.** 2

**Q.** For B3, which “IMAP Y2H IMAP2 (number of IST)” value is on record?
**A.** 1

**Q.** How did the “IMAP Y2H IMAP2 (number of IST)” value turn out when B6 was run?
**A.** 26

Same assay, conditions: HCV protein NS5A as bait; human protein as prey

**Q.** Which “IMAP Y2H IMAP2 (number of IST)” value does the source give for B1 here?
**A.** 2

**Q.** B2 was tested. Which “IMAP Y2H IMAP2 (number of IST)” value did it give?
**A.** 4

**Q.** Which “IMAP Y2H IMAP2 (number of IST)” value does the source give for B3 here?
**A.** 38

Same assay, conditions: HCV protein NS5B as bait; human protein as prey

**Q.** With B3 as the molecule, how does the “IMAP Y2H IMAP2 (number of IST)” value read?
**A.** 14

What follows are molecules tested on HCV ORFs (Gal4-DB fusions) (assay: not given). Details: human protein listed by gene symbol; the value names the HCV protein it interacts with.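 Note: yeast two-hybrid screens using HCV genotype 1b proteins fused to Gal4-DB as baits against prey cDNA libraries from human spleen and foetal brain, IMAP1 via transformation and IMAP2 via mating.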
Type: binding, HCV genotype 1b, isolate con1

**Q.** How did the “Interaction with viral protein” value turn out when B4 was run?
**A.** NS3

**Q.** B5 was tested. Which “Interaction with viral protein” value did it give?
**A.** NS3

**Q.** For B3, which “Interaction with viral protein” value is on record?
**A.** NS3 and NS5A

**Q.** For B6, which “Interaction with viral protein” value is on record?
**A.** NS3
